These results are taken from the Human Domainome abundance scans (Beltran et al. 2025).

The chains are these.
B1: Transcription elongation regulator 1-like protein, residues 448 to 504; numbered along this chain, Q5VWI1 (parent)
chain: LPLEERVTHFRDMLLERGVSAFSTWEKELHKIVFDPRYLLLNSEERKQIFEQFVKTR

± gives the uncertainty stated by the source.

The variants in the series derive from B1. Description: abundance fitness (aPCA) (normalised: wild type 0, dead -1); higher = more abundant; growth selection in yeast, the domain comes from the species named. To be noted: Homo sapiens.
Regarding LPLEERVTCFRDMLLERGVSAFSTWEKELHKIVFDPRYLLLNSEERKQIFEQFVKTR [H9C], the abundance fitness is -0.201 ± 0.079.

LPLEERVTHFRQMLLERGVSAFSTWEKELHKIVFDPRYLLLNSEERKQIFEQFVKTR [D12Q]: the abundance fitness is -0.223 ± 0.24.

With LPLEERVTHFRAMLLERGVSAFSTWEKELHKIVFDPRYLLLNSEERKQIFEQFVKTR [D12A], the abundance fitness is -0.335 ± 0.33.

Consider LPLEERVTHFRKMLLERGVSAFSTWEKELHKIVFDPRYLLLNSEERKQIFEQFVKTR [D12K], for which the abundance fitness was -0.119 ± 0.1.

As to LPLEERVTHFRRMLLERGVSAFSTWEKELHKIVFDPRYLLLNSEERKQIFEQFVKTR [D12R], the abundance fitness is -0.283 ± 0.14.

Take LPLEERVTHFRNMLLERGVSAFSTWEKELHKIVFDPRYLLLNSEERKQIFEQFVKTR [D12N]: the abundance fitness is -0.26 ± 0.26.

On to LPLEERVTHFRPMLLERGVSAFSTWEKELHKIVFDPRYLLLNSEERKQIFEQFVKTR [D12P], for which the abundance fitness was -0.83 ± 0.21.

For the variant LPLEERVTHFRMMLLERGVSAFSTWEKELHKIVFDPRYLLLNSEERKQIFEQFVKTR [D12M], the abundance fitness came to 0.191 ± 0.12.

On to LPLEERVTHFRGMLLERGVSAFSTWEKELHKIVFDPRYLLLNSEERKQIFEQFVKTR [D12G], for which the abundance fitness was -0.381 ± 0.19.

Consider LPLEERVTHFRWMLLERGVSAFSTWEKELHKIVFDPRYLLLNSEERKQIFEQFVKTR [D12W], for which the abundance fitness is -0.059 ± 0.16.

Regarding LPLEERVTHFRYMLLERGVSAFSTWEKELHKIVFDPRYLLLNSEERKQIFEQFVKTR [D12Y], the abundance fitness was -0.112 ± 0.34.

With LPLEERVTHFRFMLLERGVSAFSTWEKELHKIVFDPRYLLLNSEERKQIFEQFVKTR [D12F], the abundance fitness is -0.624 ± 0.45.

As for LPLEERVTHFRSMLLERGVSAFSTWEKELHKIVFDPRYLLLNSEERKQIFEQFVKTR [D12S], the abundance fitness is -0.237 ± 0.098.

As for LPLEERVTHFRVMLLERGVSAFSTWEKELHKIVFDPRYLLLNSEERKQIFEQFVKTR [D12V], the abundance fitness is -0.641 ± 0.26.

Take LPLEERVTHFRIMLLERGVSAFSTWEKELHKIVFDPRYLLLNSEERKQIFEQFVKTR [D12I]: the abundance fitness was -0.177 ± 0.33.

Consider LPLEERVTHFREMLLERGVSAFSTWEKELHKIVFDPRYLLLNSEERKQIFEQFVKTR [D12E], for which the abundance fitness amounted to 0.274 ± 0.19.

As for LPLEERVTHFRCMLLERGVSAFSTWEKELHKIVFDPRYLLLNSEERKQIFEQFVKTR [D12C], the abundance fitness is -0.578 ± 0.45.

With LPLEERVTHLRDMLLERGVSAFSTWEKELHKIVFDPRYLLLNSEERKQIFEQFVKTR [F10L], the abundance fitness is -0.682 ± 0.21.

For LPLEERVTHNRDMLLERGVSAFSTWEKELHKIVFDPRYLLLNSEERKQIFEQFVKTR [F10N], the abundance fitness is -0.237 ± 0.43.

As for LPLEERVTHQRDMLLERGVSAFSTWEKELHKIVFDPRYLLLNSEERKQIFEQFVKTR [F10Q], the abundance fitness was -0.884 ± 0.34.

LPLEERVTHVRDMLLERGVSAFSTWEKELHKIVFDPRYLLLNSEERKQIFEQFVKTR [F10V]: the abundance fitness is -0.97 ± 0.36.

LPLEERVTHTRDMLLERGVSAFSTWEKELHKIVFDPRYLLLNSEERKQIFEQFVKTR [F10T]: the abundance fitness was -0.679 ± 0.4.

For the variant LPLEERVTHRRDMLLERGVSAFSTWEKELHKIVFDPRYLLLNSEERKQIFEQFVKTR [F10R], the abundance fitness was -0.677 ± 0.15.

Consider LPLEERVTHHRDMLLERGVSAFSTWEKELHKIVFDPRYLLLNSEERKQIFEQFVKTR [F10H], for which the abundance fitness was 0.065 ± 0.34.

For LPLEERVTHWRDMLLERGVSAFSTWEKELHKIVFDPRYLLLNSEERKQIFEQFVKTR [F10W], the abundance fitness was -0.536 ± 0.27.

LPLEERVTHARDMLLERGVSAFSTWEKELHKIVFDPRYLLLNSEERKQIFEQFVKTR [F10A]: the abundance fitness is -0.717 ± 0.14.

LPLEERVTHGRDMLLERGVSAFSTWEKELHKIVFDPRYLLLNSEERKQIFEQFVKTR [F10G]: the abundance fitness is -0.727 ± 0.11.

For the variant LPLEERVTHMRDMLLERGVSAFSTWEKELHKIVFDPRYLLLNSEERKQIFEQFVKTR [F10M], the abundance fitness was -0.782 ± 0.2.

Turning to LPLEERVTHPRDMLLERGVSAFSTWEKELHKIVFDPRYLLLNSEERKQIFEQFVKTR [F10P], the abundance fitness is -0.227 ± 0.46.

Regarding LPLEERVTHCRDMLLERGVSAFSTWEKELHKIVFDPRYLLLNSEERKQIFEQFVKTR [F10C], the abundance fitness was -1.1 ± 0.32.

Take LPLEERVTHFRDMLDERGVSAFSTWEKELHKIVFDPRYLLLNSEERKQIFEQFVKTR [L15D]: the abundance fitness was -0.142 ± 0.47.

Consider LPLEERVTHFRDMLAERGVSAFSTWEKELHKIVFDPRYLLLNSEERKQIFEQFVKTR [L15A], for which the abundance fitness is -0.226 ± 0.19.

For the variant LPLEERVTHFRDMLEERGVSAFSTWEKELHKIVFDPRYLLLNSEERKQIFEQFVKTR [L15E], the abundance fitness is 0.351 ± 0.26.

For LPLEERVTHFRDMLCERGVSAFSTWEKELHKIVFDPRYLLLNSEERKQIFEQFVKTR [L15C], the abundance fitness is -0.454 ± 0.17.

Consider LPLEERVTHFRDTLLERGVSAFSTWEKELHKIVFDPRYLLLNSEERKQIFEQFVKTR [M13T], for which the abundance fitness is -0.759 ± 0.14.

With LPLEERVTHFRDELLERGVSAFSTWEKELHKIVFDPRYLLLNSEERKQIFEQFVKTR [M13E], the abundance fitness is -0.582 ± 0.3.

Take LPLEERVTHFRDPLLERGVSAFSTWEKELHKIVFDPRYLLLNSEERKQIFEQFVKTR [M13P]: the abundance fitness was -0.257 ± 0.39.

Regarding LPLEERVTHFRDSLLERGVSAFSTWEKELHKIVFDPRYLLLNSEERKQIFEQFVKTR [M13S], the abundance fitness is -0.743 ± 0.29.

Consider LPLEERVTHFRDKLLERGVSAFSTWEKELHKIVFDPRYLLLNSEERKQIFEQFVKTR [M13K], for which the abundance fitness was -0.555 ± 0.42.

On to LPLEERVTHFRDCLLERGVSAFSTWEKELHKIVFDPRYLLLNSEERKQIFEQFVKTR [M13C], for which the abundance fitness is -0.804 ± 0.16.

Consider LPLEERVTHFRDALLERGVSAFSTWEKELHKIVFDPRYLLLNSEERKQIFEQFVKTR [M13A], for which the abundance fitness is -0.896 ± 0.15.

In the case of LPLEERVTHFRDRLLERGVSAFSTWEKELHKIVFDPRYLLLNSEERKQIFEQFVKTR [M13R], the abundance fitness was -0.7 ± 0.26.

As for LPLEERVTHFRDWLLERGVSAFSTWEKELHKIVFDPRYLLLNSEERKQIFEQFVKTR [M13W], the abundance fitness was -0.08 ± 0.31.

For the variant LPLEERVTHFRDLLLERGVSAFSTWEKELHKIVFDPRYLLLNSEERKQIFEQFVKTR [M13L], the abundance fitness is -0.415 ± 0.12.

For the variant LPLEERVTHFRDILLERGVSAFSTWEKELHKIVFDPRYLLLNSEERKQIFEQFVKTR [M13I], the abundance fitness is -0.623 ± 0.17.

On to LPLEERVTHFRDVLLERGVSAFSTWEKELHKIVFDPRYLLLNSEERKQIFEQFVKTR [M13V], for which the abundance fitness was -0.327 ± 0.13.

LPLEERVTHFRDFLLERGVSAFSTWEKELHKIVFDPRYLLLNSEERKQIFEQFVKTR [M13F]: the abundance fitness is -0.765 ± 0.46.
